Target: R1-E5
Test: BLI

Kd: 43 nM
B1: IL-15Rβ (receptor)
chain: AVNGTSQFTCFYNSRANISCVWSQDGALQDTSCQVHAWPDRRRWNQTCELLPVSQASWACNLILGAPDSQKLTTVDIVTLRVLCREGVRWRVMAIQDFKPFENLRLMAPISLQVVHVETHRCNISWEISQASHYFERHLEFEARTLSPGHTWEEAPLLTLKQKQEWICLETLTPDTQYEFQVRVKPLQGEFTTWSPWSQPLAFRTKPAALGKD
